This data set has as its target EcoSSB (Escherichia coli, UniProt P0AGE0). In words: EMSA; Complex I at low and Complex II at high SSB; 0.2, 2, 10 pmol tetramer, 1 pmol DNA; 20 mM Tris-HCl pH 8.0, 50 mM NaCl, 5% glycerol, 50 μg/ml BSA, 15 μl, 30 min at 4°C; 8% native PAGE in 1x TBE. The settings on record: protein: recombinant; chain copies: 4; label: 5' 32P; single strand. A general note: A gel shift assay detects complexes by their altered migration in electrophoresis.

Consider one molecule from article PMC3983218.

Sequence of EcoSSB (P0AGE0 whole entry): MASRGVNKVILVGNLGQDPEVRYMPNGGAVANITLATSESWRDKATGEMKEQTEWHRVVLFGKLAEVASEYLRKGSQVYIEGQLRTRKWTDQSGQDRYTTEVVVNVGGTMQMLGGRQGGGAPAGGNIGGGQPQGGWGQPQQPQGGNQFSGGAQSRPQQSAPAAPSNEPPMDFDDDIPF

B1: 79 mer ssDNA (ssDNA)
DNA: GCACTAGTGCGGATAGCCCCGTGTTGTTGTCTGACCCCCGACCCCGACGGCAATGCGGGGCAATCCCCTGGAGGCCTGC
With B1, the binding result is recorded as “binds”.
